From publication PMC7975240
pKd: −log10 of the molar value.

Target: SARS-CoV-2 spike trimer (1–1208 aa) (SARS-CoV-2) (UniProt P0DTC2)
Assay: SPR

## Toll-like receptor 4 (TLR4) (from UniProt O00206 24-839)
  pKd: 6.52
